The target in assay [1] is Deinococcus radiodurans trehalose synthase, wild type (Deinococcus radiodurans). Briefly: AUC; sedimentation velocity, 293 K, 42 000 rev/min; enzyme 0.1 mg/ml in 20 mM Tris-HCl pH 7.5, 100 mM NaCl; c(s) distribution with SEDFIT.
Assay [2] concerns the target T1, DrTS (trehalose synthase) (Deinococcus radiodurans, UniProt I3NX86).
T1 construct: full length, about 552 residues plus vector linkers (residues 1-5 disordered); pET-23a(+), Ni-NTA purified, E. coli BL21 (DE3); homodimer
T1 sequence (I3NX86 1-552): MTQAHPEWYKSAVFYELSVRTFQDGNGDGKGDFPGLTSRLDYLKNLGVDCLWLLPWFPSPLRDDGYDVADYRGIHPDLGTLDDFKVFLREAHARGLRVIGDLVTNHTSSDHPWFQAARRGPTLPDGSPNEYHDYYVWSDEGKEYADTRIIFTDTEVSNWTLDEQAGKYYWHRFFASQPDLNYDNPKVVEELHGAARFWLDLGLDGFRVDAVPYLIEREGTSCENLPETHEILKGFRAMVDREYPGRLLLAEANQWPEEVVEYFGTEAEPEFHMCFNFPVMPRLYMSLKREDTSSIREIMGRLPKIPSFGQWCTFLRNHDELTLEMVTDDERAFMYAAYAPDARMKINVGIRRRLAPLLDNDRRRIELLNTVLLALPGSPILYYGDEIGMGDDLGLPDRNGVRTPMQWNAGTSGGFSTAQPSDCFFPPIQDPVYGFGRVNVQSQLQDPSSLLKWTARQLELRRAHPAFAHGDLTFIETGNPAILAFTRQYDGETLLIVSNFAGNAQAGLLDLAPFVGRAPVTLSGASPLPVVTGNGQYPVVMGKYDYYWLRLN
Briefly: isomerase assay (trehalose from maltose), HPLC with refractive-index detection. The assay is classed as biochemical.

pIC50: −log10 of the molar value.

For “Deinococcus radiodurans trehalose synthase, wild type (enzyme)”, in assay [1], the stoichiometry N (commonly a count of units in the complex or per binding partner) turned out to be 2.

Regarding `NC(CO)(CO)CO` [Tris], in assay [2], the pIC50 (commonly −log10 of the IC50, conventionally taken in molar units) was 2.31.
